The values that follow come from article PMC10808224, “Lsr2 acts as a cyclic di-GMP receptor that promotes keto-mycolic acid synthesis and biofilm formation in mycobacteria” (Nature Communications, 2024).

The target of data set [1] is Lsr2Mtb (Lsr2BCG in main text) (Mycobacterium tuberculosis) (UniProt P9WIP7). Briefly: EMSA. For orientation: A gel shift assay detects complexes by their altered migration in electrophoresis.
Data set [2] addresses Lsr2Msm (Mycobacterium smegmatis mc2 155) (UniProt A0R576). Briefly: EMSA. The note with it: EMSA: 50 mM Tris-HCl pH 7.5, 50 mM NaCl, 10% glycerol, 30 uL, room temperature 15 min; 8% native PAGE in 0.5x TBE.

Turning to “CCGCTCGGATCGGGGTTCCGTCGGCCCTGGCGCTGGGTGCGGCCGGCGGCGCGTTGGCGGCTCTAGCCTCTAGACGCCAATCACGCTGATAAGCTGCGCCGTTAGCCTGGCGACGATGCGGCCCGCGCAGCGGGGCGAGGAGGAGCCGGGCAATAGGGCCCAGCCTGGCGACGATGCGACCCGCGCAGCGGGGCGAGGAGGAGCCGGGCAATAGGGCTTAGCAACTATTCGAGCGGAGGGCGGCAGCGGCATGACAGTTCCCGAAGAAGCCCAGACACTGATCGGCAAGCATTATCGGGC (double strand) [hadDMtbp / hadDBCGp]”, the binding result in data set [1] is on record as “binds”.
In the case of “TAGTCGGGGTAGCGGTAGTGAGTCCCGATGATGTTTGCCGCGATGCTCATGTGTTCTCTGCTACTCCCGTGCTTCCAGCTTCAACTGCCCGGCTGCGGAAGCCTATCAGCGTGGGGGTTCAGCGAATGTCAGCGAAGGTCAGCGAAGGTCATGGCGGCGGGAGGCCACCGCGGCCAGCGCGCCGCCGAGCGCCCCTAGGGCCAGCGCGGACGGCACACCGATGCGGGCCGCTTTGCGGGCCGTGCGGAAGTCGCGGATCTCCCAGCCGCGTTCCCGCGCGACGTCGCGCAGCGCGGCGTC (double strand) [hadDMsmp]”, the binding result in data set [2] is recorded as “binds”.
